{
  "source": "patent US12390517B2",
  "about": "“Compositions, methods and uses for eliciting an immune response” (Griffith University, priority 2018, dated 2025)",
  "key": {"[1]": {"molecular_target": "T1, recombinant MsrA/B (methionine sulfoxide reductase) from N. gonorrhoeae 1291, amino acids 30-522 of SEQ ID NO: 1 (recombinant with 6-His tag SEQ ID NO: 15); tag (Neisseria gonorrhoeae, UniProt P14930, E520K)", "T1 construct": "6-His tag (N); thrombin cleavage site (N); made in house; host or cells: E. coli BL21 Star (DE3)pLysS", "T1 sequence (P14930 with tags, fused parts or gaps E520K)": "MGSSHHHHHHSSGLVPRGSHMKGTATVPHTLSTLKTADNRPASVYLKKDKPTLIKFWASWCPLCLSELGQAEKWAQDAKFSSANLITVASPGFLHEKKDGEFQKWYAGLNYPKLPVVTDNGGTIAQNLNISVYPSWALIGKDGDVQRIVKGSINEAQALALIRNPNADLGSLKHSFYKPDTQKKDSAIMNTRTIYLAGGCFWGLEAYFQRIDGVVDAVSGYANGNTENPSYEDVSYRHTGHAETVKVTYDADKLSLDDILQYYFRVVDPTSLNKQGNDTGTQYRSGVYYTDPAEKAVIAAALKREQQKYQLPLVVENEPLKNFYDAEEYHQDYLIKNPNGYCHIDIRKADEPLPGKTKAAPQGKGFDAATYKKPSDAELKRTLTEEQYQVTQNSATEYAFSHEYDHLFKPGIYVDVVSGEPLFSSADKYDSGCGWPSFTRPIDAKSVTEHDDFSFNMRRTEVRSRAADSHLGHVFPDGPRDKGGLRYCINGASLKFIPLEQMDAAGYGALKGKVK", "assay": "Surface plasmon resonance (SPR) affinity assay of Met(O) binding to immobilized MsrA/B", "parameters": "species or system Neisseria gonorrhoeae 1291", "conditions": "read-out: KD (equilibrium dissociation constant), Biacore T200, MsrA/B immobilized on CM5 chip, Met(O) 0.16 to 100 nM, single cycle kinetics, absence of serum/antibody", "procedure": "The msr gene was amplified from N. gonorrhoeae 1291 using primers msrexp_NdeIF (5′-[…]-3′; SEQ ID NO:20) and msrexp_XhoIR (5′-[…]-3′; SEQ ID NO:21) and the resulting PCR product was cloned into pET15b to obtain a Msr expression construct pET15bmsr. The construct pET15bmsr was transformed into E. coli BL21 Star (DE3)pLysS host strain (Novagen) and MsrA/B was overexpressed and purified. Briefly, expression was induced by 0.1 mM IPTG at an optical density at 600 nm (OD600) of 0.4 for 24 hr at room temperature. Cell cultures were harvested and the cell pellet was re-suspended in buffer A. Cells were lysed by sonication, centrifuged and the supernatant was applied to a column packed with TALON™ metal affinity resins (Clontech laboratories, Inc). […] Fractions were collected and analyzed by 4-12% NuPAGE® Novex Bis-Tris Gels (Invitrogen) stained with Coomassie Blue, and by Western blot of anti-His polyclonal antisera. […]\nSPR assays were performed using a Biacore T200 for affinity analysis and a Pall Pioneer FE for competition assays. […] Data was analyzed using the Biacore T200 evaluation software package. […] Data was collected using the Pioneer Software package and analyzed using Qdat analysis software. The percentage blocking was calculated based on the relative RMax of the Met(O) injection with and without serum, and the serum with and without Met(O). […]"}, "[2]": {"test_system": "whole cell N. gonorrhoeae 1291", "assay": "Whole cell ELISA of mouse antisera against N. gonorrhoeae 1291 strains", "type": "binding", "conditions": "antisera of 5 mice immunized with Freund's adjuvant; for Whole cell ELISA titre to the mutant strain: 1291 msr::kan mutant; for Whole cell ELISA average titre to 1291 Δmsr_C: complemented strain; for Whole cell ELISA average titre to 1291: wild-type 1291", "procedure": "Groups of 10 female BALB/c mice (6 weeks old) were immunized subcutaneously with 5 μg of recombinant MsrA/B with either Alhydrogel® (aluminium hydroxide, InvivoGen) or Freund's (FCA/FIA, Sigma-Aldrich) adjuvant on days 0, 21, and 28. Terminal bleeds were collected on day 42. For Freund's adjuvant, Freund's complete adjuvant (FCA) was used on day 0 and Freund's incomplete adjuvant (FIA) was used in the boosts of day 21 and 28. Pre-bleed of each mouse was collected 4 days before immunization. This study was carried out in accordance with the recommendations of the Australian Code for the Care and Use of Animals for Scientific Purposes, the Griffith University Animal Ethics Committee (AEC). The protocol was approved by the Griffith University AEC.\nFor whole cell ELISA, bacteria were grown on BHI or GC plates for 16 hr. Cells were harvested and resuspended in PBS at an OD600 of 0.2. Microtitre plate wells were filled with 50 μl of the bacterial suspension and dried at room temperature overnight in the laminar flow cabinet. The bacteria in the dried wells were then heat-killed for 1 hr in 56° C. For recombinant protein ELISA, wells of plates were coated with 100 ng of purified recombinant MsrA/B protein in 100 μl of coating buffer (0.5M carbonate/bicarbonate buffer, pH 9.6) for 1 hr at room temperature. All ELISAs were performed with mouse pre-immune or MsrA/B immunized sera, and secondary antibody as specified in the results (polyclonal anti-mouse Ig HRP (Dako) or IgG1, IgG2a, IgG2b, IgG3 or IgM HRP (Thermofisher Scientific)). The substrate TMB (3,3′, 5,5;-tetramethylbenzidine) solution (Thermofisher Scientific) was used as per manufacture's instruction. Equal amount of 1 N hydrochloric acid was added to stop the reaction. Absorbance was read in a TECAN Model Infinite 200 Pro plate reader at 450 nm."}},
  "data": [
    {"molecule": "C[S+]([O-])CC[C@H](N)C(=O)O", "note": "(stereo partly shown) [Met(O), methionine sulfoxide]", "values": [
      {"measurement": "Kd", "setting": "[1]", "value": "0.0154 ± 0.0037", "unit": "µM"}
    ]},
    {"molecule": "MsrA: recombinant MsrA domain, his-tag removed (SEQ ID NO:28), given to mice with Freund's adjuvant (protein, Recombinant MsrA) GSHMKHSFYKPDTQKKDSAIMNTRTIYLAGGCFWGLEAYFQRIDGVVDAVSGYANGNTENPSYEDVSYRHTGHAETVKVTYDADKLSLDDILQYYFRVVDPTSLNKQGNDTGTQYRSGVYYTDPAEKAVIAAALKREQQKYQLPLVVENEPLKNFYDAEEYHQDYLIKNPNGYCHIDIRKADEPLPG", "values": [
      {"measurement": "Whole cell ELISA titre to the mutant strain", "setting": "[2]", "value": "1,000"},
      {"measurement": "Whole cell ELISA average titre to 1291 Δmsr_C", "setting": "[2]", "value": "20,000"},
      {"measurement": "Whole cell ELISA average titre to 1291", "setting": "[2]", "value": "10,000"}
    ]},
    {"molecule": "MsrB: recombinant MsrB domain, his-tag removed (SEQ ID NO:31), given to mice with Freund's adjuvant (protein, Recombinant MsrB) GSHMKAATYKKPSDAELKRTLTEEQYQVTQNSATEYAFSHEYDHLFKPGIYVDVVSGEPLFSSADKYDSGCGWPSFTRPIDAKSVTEHDDFSFNMRRTEVRSRAADSHLGHVFPDGPRDKGGLRYCINGASLKFIPLEQMDAAGYGALKGKVK", "values": [
      {"measurement": "Whole cell ELISA titre to the mutant strain", "setting": "[2]", "value": "1,000"},
      {"measurement": "Whole cell ELISA average titre to 1291 Δmsr_C", "setting": "[2]", "value": "40,000"},
      {"measurement": "Whole cell ELISA average titre to 1291", "setting": "[2]", "value": "16,000"}
    ]}
  ]
}
